Laboratory results as given in the supplement of paper PMC11246515.
± gives the standard deviation of the averaged measurements.

Assay: total protein half-life in vivo (active degradation + dilution); higher = more stable protein
[1] = E. coli NCM3722 delta-clpP delta-lon delta-hslV, growth: N-lim chemostat, doubling time 6 h
[2] = E. coli NCM3722 delta-clpP, growth: N-lim chemostat, doubling time 6 h
[3] = E. coli NCM3722 delta-hslV, growth: N-lim chemostat, doubling time 6 h
[4] = E. coli NCM3722 delta-lon, growth: N-lim chemostat, doubling time 6 h
[5] = E. coli NCM3722 delta-smpB, growth: N-lim chemostat, doubling time 6 h
[6] = wild type E. coli NCM3722, growth: C-lim chemostat, doubling time 3 h
[7] = wild type E. coli NCM3722, growth: C-lim chemostat, doubling time 6 h
[8] = wild type E. coli NCM3722, growth: C-lim chemostat, doubling time 12 h
[9] = wild type E. coli NCM3722, growth: N-lim chemostat, doubling time 6 h
[10] = wild type E. coli NCM3722, growth: N-lim chemostat, doubling time 12 h
[11] = wild type E. coli NCM3722, growth: P-lim chemostat, doubling time 6 h
[12] = wild type E. coli NCM3722, growth: P-lim chemostat, doubling time 12 h

Sequence	total protein half-life in vivo [1] [h]	total protein half-life in vivo [2] [h]	total protein half-life in vivo [3] [h]	total protein half-life in vivo [4] [h]	total protein half-life in vivo [5] [h]	total protein half-life in vivo [6] [h]	total protein half-life in vivo [7] [h]	total protein half-life in vivo [8] [h]	total protein half-life in vivo [9] [h]	total protein half-life in vivo [10] [h]	total protein half-life in vivo [11] [h]	total protein half-life in vivo [12] [h]
MTMNSFERRNKIIQLVNEQGTVLVQDLAGVFAASEATIRADLRFLEQKGVVTRFHGGAAKIMSGNSETETQEVGFKERFQLASAPKNRIAQAAVKMIHEGMTDPTHVIWTQA	5.66 ± 0.27	5.64 ± 0.21	5.7 ± 0.13	5.59 ± 0.61	6.1 ± 0.52	2.9 ± 0.17	5.62 ± 0.3	12.4 ± 2.1	5.69 ± 0.26	11.3 ± 1.8	5.95 ± 0.17	11.5 ± 0.23
MTMSLEVFEKLEAKVQQAIDTITLLQMEIEELKEKNNSLSQEVQNAQHQREELERENNHLKEQQNGWQERLQALLGRMEEV [P0AF36]	7.42 ± 0.15	5.62 ± 0.36	3.23	4.06 ± 0.25	3.08 ± 0.33	2.8 ± 0.15	5.01 ± 0.5	8.02 ± 1.9	2.88 ± 0.047	5.13 ± 2.1	4.53	8.35 ± 0.092
MTMTRLKISKTLLAVMLTSAVATGSAYAENNAQTTNESAGQKVDSSMNKVGNFMDDSAITAKVKAALVDHDNIKSTDISVKTDQKVVTLSGFVESQAQAEEAVKVAKGVEGVTSVSDKLHVRDAKEGSVKGYAGDTATTSEIKAKLLADDIVPSRHVKVETTDGVVQLSGTVDSQAQSDRAESIAKAVDGVKSVKNDLKTK [P0AFH8]	3.62 ± 0.17	4.7 ± 0.28	5.73 ± 0.24	5.7 ± 0.33	5.25 ± 0.3	2.96 ± 0.067	5.39 ± 0.2	8.26 ± 2.2	5.5 ± 0.26	11.3 ± 0.17	4.9 ± 0.15	9.28 ± 0.88
MTNITLQKQHRTLWHFIPGLALSAVITGVALWGGSIPAVAGAGFSALTLAILLGMVLGNTIYPHIWKSCDGGVLFAKQYLLRLGIILYGFRLTFSQIADVGISGIIIDVLTLSSTFLLACFLGQKVFGLDKHTSWLIGAGSSICGAAAVLATEPVVKAEASKVTVAVATVVIFGTVAIFLYPAIYPLMSQWFSPETFGIYIGSTVHEVAQVVAAGHAISPDAENAAVISKMLRVMMLAPFLILLAARVKQLSGANSGEKSKITIPWFAILFIVVAIFNSFHLLPQSVVNMLVTLDTFLLAMAMAALGLTTHVSALKKAGAKPLLMALVLFAWLIVGGGAINYVIQSVIA		2.86										
MTNLNYQQTHFVMSAPDIRHLPSDTGIEVAFAGRSNAGKSSALNTLTNQKSLARTSKTPGRTQLINLFEVADGKRLVDLPGYGYAEVPEEMKRKWQRALGEYLEKRQSLQGLVVLMDIRHPLKDLDQQMIEWAVDSNIAVLVLLTKADKLASGARKAQLNMVREAVLAFNGDVQVETFSSLKKQGVDKLRQKLDTWFSEMQPVEETQDGE [P0A6P7]	5.33 ± 0.22	6.45 ± 1.6	5.05 ± 0.074	5.83 ± 0.38	5.19 ± 0.42	2.924 ± 0.022	5.58 ± 0.19	11.2 ± 0.46	5.08 ± 0.32	9.45 ± 0.2	5.59 ± 0.11	11.4 ± 0.91
MTNLPKFSTALLHPRYWLTWLGIGVLWLVVQLPYPVIYRLGCGLGKLALRFMKRRAKIVHRNLELCFPEMSEQERRKMVVKNFESVGMGLMETGMAWFWPDRRIARWTEVIGMEHIRDVQAQKRGILLVGIHFLTLELGARQFGMQEPGIGVYRPNDNPLIDWLQTWGRLRSNKSMLDRKDLKGMIKALKKGEVVWYAPDHDYGPRSSVFVPLFAVEQAATTTGTWMLARMSGACLVPFVPRRKPDGKGYQLIMLPPECSPPLDDAETTAAWMNKVVEKCIMMAPEQYMWLHRRFKTRPEGVPSRY [P0ACV0]	6.85	5.84	6.63		5.81		7.93					
MTNNPLIPQSKLPQLGTTIFTQMSALAQQHQAINLSQGFPDFDGPRYLQERLAHHVAQGANQYAPMTGVQALREAIAQKTERLYGYQPDADSDITVTAGATEALYAAITALVRNGDEVICFDPSYDSYAPAIALSGGIVKRMALQPPHFRVDWQEFAALLSERTRLVILNTPHNPSATVWQQADFAALWQAIAGHEIFVISDEVYEHINFSQQGHASVLAHPQLRERAVAVSSFGKTYHMTGWKVGYCVAPAPISAEIRKVHQYLTFSVNTPAQLALADMLRAEPEHYLALPDFYRQKRDILVNALNESRLEILPCEGTYFLLVDYSAVSTLDDVEFCQWLTQEHGVAAIPLSVFCADPFPHKLIRLCFAKKESTLLAAAERLRQL	2.63 ± 0.15	1.93 ± 0.071	1.69 ± 0.11	2.09	2.01 ± 0.052	2.48 ± 0.11	3.9 ± 0.38	5.92 ± 0.72	1.95		5.33 ± 1.2	8.16 ± 1
MTNQPTEIAIVGGGMVGGALALGLAQHGFAVTVIEHAEPAPFVADSQPDVRISAISAASVSLLKGLGVWDAVQAMRCHPYRRLETWEWETAHVVFDAAELKLPLLGYMVENTVLQQALWQALEAHPKVTLRVPGSLIALHRHDDLQELELKGGEVIRAKLVIGADGANSQVRQMAGIGVHAWQYAQSCMLISVQCENDPGDSTWQQFTPDGPRAFLPLFDNWASLVWYDSPARIRQLQNMNMAQLQAEIAKHFPSRLGYVTPLAAGAFPLTRRHALQYVQPGLALVGDAAHTIHPLAGQGVNLGYRDVDALIDVLVNARSYGEAWASYPVLKRYQMRRMADNFIMQSGMDLFYAGFSNNLPPLRFMRNLGLMAAERAGVLKRQALKYALGL	4.44 ± 0.19	3.97 ± 0.055	4.09 ± 0.076	3.34 ± 0.071	3.93 ± 0.044	2.59 ± 0.043	4.352 ± 0.0069	7.53 ± 0.7	3.808 ± 0.035	7.16 ± 0.92	4.49 ± 0.16	7.66 ± 0.16
MTNRLVLSGTVCRAPLRKVSPSGIPHCQFVLEHRSVQEEAGFHRQAWCQMPVIVSGHENQAITHSITVGSRITVQGFISCHKAKNGLSKMVLHAEQIELIDSGD					4.72	2.97			5.76			15.6
MTNTWNRLALLIFAVLSLLVAGELQAGVVVGGTRFIFPADRESISILLTNTSQESWLINSKINRPTRWAGGEASTVPAPLLAAPPLILLKPGTTGTLRLLRTESDILPVDRETLFELSIASVPSGKVENQSVKVAMRSVFKLFWRPEGLPGDPLEAYQQLRWTRNSQGVQLTNPTPYYINLIQVSVNGKALSNVGVVPPKSQRQTSWCQAIAPCHVAWRAINDYGGLSAKKEQNLP						2.87				3.48		
MTPEHLPTEQYEAQLAEKVVRLQSMMAPFSDLVPEVFRSPVSHYRMRAEFRIWHDGDDLYHIIFDQQTKSRIRVDSFPAASELINQLMTAMIAGVRNNPVLRHKLFQIDYLTTLSNQAVVSLLYHKKLDDEWRQEAEALRDALRAQNLNVHLIGRATKTKIELDQDYIDERLPVAGKEMIYRQVENSFTQPNAAMNIQMLEWALDVTKGSKGDLLELYCGNGNFSLALARNFDRVLATEIAKPSVAAAQYNIAANHIDNVQIIRMAAEEFTQAMNGVREFNRLQGIDLKSYQCETIFVDPPRSGLDSETEKMVQAYPRILYISCNPETLCKNLETLSQTHKVERLALFDQFPYTHHMECGVLLTAK	6.08 ± 1.6	5.19 ± 0.62	4.85 ± 0.33	5.53 ± 0.082	5.35 ± 0.35		6.89 ± 0.74	12.6 ± 2.2	4.83 ± 0.21	11.3 ± 2.8	5.56 ± 0.39	13.8 ± 1.9
MTPGEVRRLYFIIRTFLSYGLDELIPKMRITLPLRLWRYSLFWMPNRHKDKLLGERLRLALQELGPVWIKFGQMLSTRRDLFPPHIADQLALLQDKVAPFDGKLAKQQIEAAMGGLPVEAWFDDFEIKPLASASIAQVHTARLKSNGKEVVIKVIRPDILPVIKADLKLIYRLARWVPRLLPDGRRLRPTEVVREYEKTLIDELNLLRESANAIQLRRNFEDSPMLYIPEVYPDYCSEGMMVMERIYGIPVSDVAALEKNGTNMKLLAERGVQVFFTQVFRDSFFHADMHPGNIFVSYEHPENPKYIGIDCGIVGSLNKEDKRYLAENFIAFFNRDYRKVAELHVDSGWVPPDTNVEEFEFAIRTVCEPIFEKPLAEISFGHVLLNLFNTARRFNMEVQPQLVLLQKTLLYVEGVGRQLYPQLDLWKTAKPFLESWIKDQVGIPALVRAFKEKAPFWVEKMPELPELVYDSLRQGKYLQHSVDKIARELQSNHVRQGQSRYFLGIGATLVLSGTFLLVSRPEWGLMPGWLMAGGLIAWFVGWRKTR [P0A6A0]	6.52 ± 0.12	6.43 ± 0.4		5.96 ± 0.34	5.829 ± 0.037		6.626 ± 0.057	12.4 ± 1.3	6.04 ± 0.33	12.3 ± 0.45	6.6 ± 0.39	12.8 ± 0.67
MTPILNHYFARINWSGAAAVNIDTLRALHLKHNCTIPFENLDVLLPREIQLDNQSPEEKLVIARRGGYCFEQNGVFERVLRELGFNVRSLLGRVVLSNPPALPPRTHRLLLVELEEEKWIADVGFGGQTLTAPIRLVSDLVQTTPHGEYRLLQEGDDWVLQFNHHQHWQSMYRFDLCEQQQSDYVMGNFWSAHWPQSHFRHHLLMCRHLPDGGKLTLTNFHFTHYENGHAVEQRNLPDVASLYAVMQEQFGLGVDDAKHGFTVDELALVMAAFDTHPEAGK		2.34 ± 0.39	3.1	4.618 ± 0.018	2.15 ± 0.18		2.81	4.65	3.11 ± 0.3	5.26 ± 0.66		3.88
